Measured values as given in PMC5597230, “Identification and characterization of preferred DNA-binding sites for the Thermus thermophilus transcriptional regulator FadR”.

T1: FadR (Thermus thermophilus HB8, UniProt Q5SM42 1-205)
T1 sequence: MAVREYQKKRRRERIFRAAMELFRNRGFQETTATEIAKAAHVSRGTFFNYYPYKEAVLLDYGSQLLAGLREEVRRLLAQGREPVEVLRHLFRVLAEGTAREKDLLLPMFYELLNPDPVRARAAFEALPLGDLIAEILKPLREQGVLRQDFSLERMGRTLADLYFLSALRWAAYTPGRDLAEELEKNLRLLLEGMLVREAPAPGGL

B1: ST2_FadR_TTHA1463 (dsDNA)
DNA 1: AGGAATTCGTGCAGAGGTGAATTTGAACCCGGTACAATTACCATCCCTCCAGAAGCTTGG
DNA 2: CCAAGCTTCTGGAGGGATGGTAATTGTACCGGGTTCAAATTCACCTCTGCACGAATTCCT
B2: ST2_FadR_TTHB017 (dsDNA)
DNA 1: AGGAATTCGTGCAGAGGTGAATTTATACTGGGTCCAATTACCATCCCTCCAGAAGCTTGG
DNA 2: CCAAGCTTCTGGAGGGATGGTAATTGGACCCAGTATAAATTCACCTCTGCACGAATTCCT
B3: ST2_FadR_R5_m1 (dsDNA)
DNA 1: AGGAATTCGTGCAGAGGTGAATGTGGACTTAGTCCAATTACCATCCCTCCAGAAGCTTGG
DNA 2: CCAAGCTTCTGGAGGGATGGTAATTGGACTAAGTCCACATTCACCTCTGCACGAATTCCT
B4: ST2_FadR_R5_m4 (dsDNA)
DNA 1: AGGAATTCGTGCAGAGGTGAATTTGCACTTAGTCCAATTACCATCCCTCCAGAAGCTTGG
DNA 2: CCAAGCTTCTGGAGGGATGGTAATTGGACTAAGTGCAAATTCACCTCTGCACGAATTCCT
B5: ST2_FadR_R5_m3 (dsDNA)
DNA 1: AGGAATTCGTGCAGAGGTGAATTTCGACTTAGTCCAATTACCATCCCTCCAGAAGCTTGG
DNA 2: CCAAGCTTCTGGAGGGATGGTAATTGGACTAAGTCGAAATTCACCTCTGCACGAATTCCT
B6: ST2_FadR_R5_m5 (dsDNA)
DNA 1: AGGAATTCGTGCAGAGGTGAATTTGGGCTTAGTCCAATTACCATCCCTCCAGAAGCTTGG
DNA 2: CCAAGCTTCTGGAGGGATGGTAATTGGACTAAGCCCAAATTCACCTCTGCACGAATTCCT
B7: ST2_FadR_R5_m7 (dsDNA)
DNA 1: AGGAATTCGTGCAGAGGTGAATTTGGACATAGTCCAATTACCATCCCTCCAGAAGCTTGG
DNA 2: CCAAGCTTCTGGAGGGATGGTAATTGGACTATGTCCAAATTCACCTCTGCACGAATTCCT
B8: ST2_FadR_R5_wt (dsDNA)
DNA 1: AGGAATTCGTGCAGAGGTGAATTTGGACTTAGTCCAATTACCATCCCTCCAGAAGCTTGG
DNA 2: CCAAGCTTCTGGAGGGATGGTAATTGGACTAAGTCCAAATTCACCTCTGCACGAATTCCT
B9: ST2_FadR_TTHA0846 (dsDNA)
DNA 1: AGGAATTCGTGCAGAGGTGAATTTATACTCAGTACATTTACCATCCCTCCAGAAGCTTGG
DNA 2: CCAAGCTTCTGGAGGGATGGTAAATGTACTGAGTATAAATTCACCTCTGCACGAATTCCT
B10: ST2_FadR_TTHA0402 (dsDNA)
DNA 1: AGGAATTCGTGCAGAGGTGAATTTGAACCCAGTATAATTACCATCCCTCCAGAAGCTTGG
DNA 2: CCAAGCTTCTGGAGGGATGGTAATTATACTGGGTTCAAATTCACCTCTGCACGAATTCCT
B11: ST2_FadR_TTHA0103 (dsDNA)
DNA 1: AGGAATTCGTGCAGAGGTGAATTTGGACCTGGTAAAATTACCATCCCTCCAGAAGCTTGG
DNA 2: CCAAGCTTCTGGAGGGATGGTAATTTTACCAGGTCCAAATTCACCTCTGCACGAATTCCT
B12: ST2_FadR_TTHA0390 (dsDNA)
DNA 1: AGGAATTCGTGCAGAGGTGAATTTGAACCGGGTATAATTACCATCCCTCCAGAAGCTTGG
DNA 2: CCAAGCTTCTGGAGGGATGGTAATTATACCCGGTTCAAATTCACCTCTGCACGAATTCCT
B13: ST2_FadR_TTHA0604 (dsDNA)
DNA 1: AGGAATTCGTGCAGAGGTGAATTTATACTGGGTCTAATTACCATCCCTCCAGAAGCTTGG
DNA 2: CCAAGCTTCTGGAGGGATGGTAATTAGACCCAGTATAAATTCACCTCTGCACGAATTCCT
B14: ST2_FadR_TTHA1144 (dsDNA)
DNA 1: AGGAATTCGTGCAGAGGTGAATTTAGACTCGGTCAAATTACCATCCCTCCAGAAGCTTGG
DNA 2: CCAAGCTTCTGGAGGGATGGTAATTTGACCGAGTCTAAATTCACCTCTGCACGAATTCCT
B15: ST2_FadR_TTHA1118 (dsDNA)
DNA 1: AGGAATTCGTGCAGAGGTGAATTTATACTCGGTAAAATTACCATCCCTCCAGAAGCTTGG
DNA 2: CCAAGCTTCTGGAGGGATGGTAATTTTACCGAGTATAAATTCACCTCTGCACGAATTCCT

These binders were tested against T1, FadR (assay: EMSA; very low KD stated; value in figure only; EMSA as in previous SbtR study (buffer, salt, pH, temperature not given in the material); FadR titrations up to 600 nM, IRD700-labeled probes). Settings: protein: recombinant; tags: none stated (pET-11a); chain copies: 2; label: IRD700.

**Q.** Does B1 bind?
**A.** Result: binds

**Q.** Does B2 bind?
**A.** Result: binds

Each binder was assayed against T1, FadR (assay: EMSA; range stated for m1,m3,m4,m5,m7; exact value only in figure; EMSA as in previous SbtR study (buffer, salt, pH, temperature not given in the material); FadR titrations up to 600 nM, IRD700-labeled probes). Settings: protein: recombinant; tags: none stated (pET-11a); chain copies: 2; label: IRD700.

**Q.** With B3 as the binder, how does the Kd read?
**A.** The Kd was about 4.69 nM.

**Q.** With B4 as the binder, how does the Kd read?
**A.** The Kd was about 4.69 nM.

**Q.** With B5 as the binder, how does the Kd read?
**A.** The Kd was about 4.69 nM.

**Q.** How did the Kd turn out when B6 was run?
**A.** Its Kd is about 4.69 nM.

**Q.** With B7 as the binder, how does the Kd read?
**A.** Its Kd is about 4.69 nM.

Each binder was assayed against T1, FadR (assay: EMSA; EMSA as in previous SbtR study (buffer, salt, pH, temperature not given in the material); FadR titrations up to 600 nM, IRD700-labeled probes). Settings: protein: recombinant; tags: none stated (pET-11a); chain copies: 2; label: IRD700.

**Q.** B8 was tested. Which Kd did it give?
**A.** The Kd was 0.17 nM.

Each binder was assayed against T1, FadR (assay: EMSA; Kd in figure only; all promoter probes 0.053-11 nM; EMSA as in previous SbtR study (buffer, salt, pH, temperature not given in the material); FadR titrations up to 600 nM, IRD700-labeled probes). Settings: protein: recombinant; tags: none stated (pET-11a); chain copies: 2; label: IRD700.

**Q.** Does B9 bind?
**A.** Result: binds

**Q.** Does B10 bind?
**A.** Result: binds

**Q.** Does B11 bind?
**A.** Result: binds

**Q.** Does B12 bind?
**A.** Result: binds

**Q.** Does B13 bind?
**A.** Result: binds

**Q.** Does B14 bind?
**A.** Result: binds

**Q.** Does B15 bind?
**A.** Result: binds
